Results on 18 molecules are retold here after patent US20230416329A1 (INSTITUTE OF MATERIA MEDICA CHINESE ACADEMY OF MEDICAL …, published 2023).

Bridge positions count the residues as written; N and C are the ends. Square brackets hold non-standard residues; d marks the D form. Ends that are not written are not given here. Hyp = O=C(O)[C@@H]1C[C@@H](O)CN1; Nle = CCCC[C@H](N)C(=O)O

One experiment deals with T1, PCSK9 protein (UniProt Q8NBP7 31-692, limits assumed).
T1 construct: Kit reagent; also called proprotein convertase subtilisin/kexin type 9
Briefly: PCSK9-LDLR in vitro binding assay kit, OD450/540; peptide 50 µM, PCSK9 75 ng/mL; inhibition of PCSK9 binding to LDLR.

The target in experiment [1] is T2, porcine pancreatic elastase (porcine, UniProt P00772 27-266).
T2 construct: substrate AAApNA
Briefly: elastase inhibition, Ki=IC50/(1+S/Km).

Experiment [2] addresses T2, porcine pancreatic elastase. Briefly: elastase inhibition, AAApNA substrate, OD405.

T2 sequence (P00772 27-266 limits assumed): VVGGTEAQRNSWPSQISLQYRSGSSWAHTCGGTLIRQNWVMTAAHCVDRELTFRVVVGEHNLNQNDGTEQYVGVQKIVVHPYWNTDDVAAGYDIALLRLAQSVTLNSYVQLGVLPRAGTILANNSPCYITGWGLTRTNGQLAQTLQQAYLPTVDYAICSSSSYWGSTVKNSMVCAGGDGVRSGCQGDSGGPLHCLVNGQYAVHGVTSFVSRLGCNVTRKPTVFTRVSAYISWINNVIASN

B1: PCSK9_4 (peptide)
peptide: WEEALDWVCGRATKSIPPICFTVFTS
modifications: disulfide 9-20 (inferred)
notes: A disulfide bond joins the two Cys of the scaffold
As for B1, the “Inhibitory rate (%)” value in the experiment with PCSK9 protein was 41.4%.
Take ICTASIP[Hyp]ICQ (disulfide 2-10 (inferred), disulfide bond between the two Cys) [EC48]: the affinity in experiment [1], expressed as Ki, was 160 nM. Further, the IC50 (as a rule, the concentration needed to halve the response being measured) in experiment [2] was found to be 550 nM.
For the molecule QGADTPPVGGLCTASIPPQCY (disulfide 12-20 (inferred), disulfide bond between the two Cys) [EC49], affinity in experiment [1] was put at a Ki of 280 nM. The molecule also had an IC50 in experiment [2] of 990 nM.
The corresponding values for ICTASI[Hyp]PICQ (disulfide 2-10 (inferred), disulfide bond between the two Cys) [EC47] are 110 nM and 400 nM.

B2: PCSK9_3 (peptide)
peptide: CGRATKSIPPICFGTVFTSWEEALDWV
modifications: disulfide 1-12 (inferred)
notes: Hybrid with the anti-trypsin scaffold BT9; A disulfide bond joins the two Cys of the scaffold
Turning to B2, the “Inhibitory rate (%)” value with PCSK9 protein stood at 89.9%.
Consider MCTASMPPQCH (disulfide 2-10 (inferred), disulfide bond between the two Cys) [EC26], for which, in experiment [1], the affinity corresponds to a Ki of 6840 nM. For the same molecule, the IC50 in experiment [2] stood at 23900 nM.

B3: PCSK9_2 (peptide)
peptide: TVFTSWEEALDWVCGRATKSIPPICF
modifications: disulfide 14-25 (inferred)
notes: Hybrid of the Pep2-8 analogue with the anti-trypsin scaffold BT9; A disulfide bond joins the two Cys of the scaffold
As for B3, in the experiment with PCSK9 protein, the “Inhibitory rate (%)” value is 89.9%.

B4: PCSK9_5 (peptide)
peptide: WEEALDWVCGRATKSIPPICFGTVFTS
modifications: disulfide 9-20 (inferred)
notes: as for B2
With B4, in the experiment with PCSK9 protein, the “Inhibitory rate (%)” value is 77.9%.
With CGLATLSIPPICQ (disulfide 1-12 (inferred), disulfide bond between the two Cys) [EC7], in experiment [1], the Ki (usually the equilibrium dissociation constant of an inhibitor or competing ligand from its target) stood at 9620 nM. Moreover, in experiment [2], half-maximal inhibition (IC50) required 33700 nM.
With CGILTASIPPICQ (disulfide 1-12 (inferred), disulfide bond between the two Cys) [EC33], the inhibitory constant (Ki) in experiment [1] amounted to 7580 nM. Further, the 50% inhibitory concentration (IC50) in experiment [2] is 26500 nM.
CAIATASIPPICQ (disulfide 1-12 (inferred), disulfide bond between the two Cys) [EC45] returned a Ki in experiment [1] of 13400 nM. This molecule had a half-maximal inhibitory concentration (IC50) in experiment [2] of 47000 nM.
ICTASIPPICQ (disulfide 2-10 (inferred), disulfide bond between the two Cys) [EC23] displayed a Ki in experiment [1] of 70 nM. The IC50 in experiment [2] worked out at 250 nM.
Regarding LCTASNPPICQ (disulfide 2-10 (inferred), disulfide bond between the two Cys) [EC25], in experiment [1], the affinity, expressed as Ki, was 300 nM. Moreover, the midpoint of inhibition in experiment [2], the IC50, lay at 1050 nM.
The molecule YCTASIPPICQ (disulfide 2-10 (inferred), disulfide bond between the two Cys) [EC29] showed an inhibition constant (Ki) in experiment [1] of 260 nM. Moreover, inhibition in experiment [2] was half-maximal at 920 nM (IC50).
In turn, FCTASIPPICQ (disulfide 2-10 (inferred), disulfide bond between the two Cys) [EC24] gave a Ki in experiment [1] of 640 nM. The molecule further showed an IC50 in experiment [2] of 2230 nM.
The corresponding values for CGI[Nle]TASIPPICQ (disulfide 1-12 (inferred), disulfide bond between the two Cys) [EC32] are 6110 nM and 21400 nM.

B5: EC50 (peptide)
peptide: SNGNAVEDGGLCTASIPPQCY
modifications: disulfide 12-20 (inferred)
notes: disulfide bond between the two Cys; peptide name, not a potency value
Regarding B5, in experiment [1], affinity was put at a Ki of 280 nM. The same molecule registered an IC50 in experiment [2] of 970 nM.
The corresponding values for ICTASYPPQCR (disulfide 2-10 (inferred), disulfide bond between the two Cys) [EC27] are 2440 nM and 8530 nM.
